Measured values: the domain aggregation screens of Martell et al. (2025)

Assay: soluble fraction after stress (log2 fold change); higher = more stays soluble; pooled small domains, quantitative proteomics
Conditions: stress: 50 degC
How it was run: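 After stress at 50°C, the amount of each protein still soluble was measured. This was done on pooled custom libraries of small protein domains, using high-throughput quantitative proteomics. The figure given is a base-two log fold change and stands for aggregation propensity, with higher values meaning more protein stays in solution.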

Sequence	soluble fraction (log2)
HMQKADFDYGDYVDLGLAMGRQSRQLREAVGIKLGIGYANSKRFYQRLQTFGISLAELKQAVEEAENDQQN	-0.735
HMPVEFVKISIKPGHPWENQFVRDIVSLPDLLMVLILRGEERIIPNGNTKILVGDKIVLSALSPG	-0.779
HMSDPELNDNEKKIYDIIFNKKSMDLTELKNLSELSNKQWDKGIKSLSKQDFVKVIKTEEALIVELV	-0.302
HMERLKRVTLSLNQSNYSVTEIARRLQAITGIKDITVVEDEQAVYLKVDPATFDLTLAQQAV	-0.218
HMTKNEFLASFQNELQKRHIPDWEDVVSEYEQHFALKQADGFSEEEIAAKLGAPAELAAQFEA	-0.0437
HMARAGKLAQDMAVWTKETMLNTERNFISLRHFKRELLRRTLAPGESEQTVRAMEEAGYIQVKDGLVFPIK	-1.74
HMAVSSYSVKRYIRNMIQAEDPSAPFSDEALRLALLAHGIAVSRRVVTKYRMAMDIPSSSQRRKR	-0.866
HMDHKTKLQEVLQKSGDVFIEYRLIKEEGPAHERIFWIEVYVDDQLIGTGQGKSKKLAEQAAAENALAALE	-0.252
HMRAPIGFRISNRRKSLKISQVALARLVGISPSYLNLIENNKRDVGGALLQRVALHLNIDIDDL	-3.02
HMSQKVQEDFLGDIRKNEIAVTVFLINGVKLQGVITWFDDASILLRRDGHTQLIYKHAVSTIMPGVAVDI	-0.118
HMIFEEDILKEFRGSLIFITHDRRFLDNIATRIIELDRGKLLSFPGNFSAYKKAKNEQLANEAVENA	-0.446
HMDKGMQTMIDNLHKNTGKTLEEWIALVNRANFAKHGEVISFLKEKHGLTHGYANLVAHRLK	0.113
HMQYQIITENGKQYYLYTVQKSEGFYSIGKRFEITNDEIIKANPEAALGLKLGQVLKIPVYK	-0.331
HMSALAQDGDLVQLQGAGYKSHILRLKAGEVLQTHRGVIQHDAVIGQPWGARLQSHTGSPFYLFQPGLADL	-0.522
HMKTRNISGNHEAVWQAVRSRTQAGHPTTRAVIMDDLKAQGLNTQKFSRWLKKLVDDGSVYMDGDTIIMGK	-0.186
HMATHWHITPNPNNGKFLISGLMQDDSFHLMDASGQWLRQLRTVNQELDLDLQPGVYFLKDNSGSVMKFVV	-0.98
HMHLKDEHGLTPKQRAFADEYVITLNATVSYKKIYSVKRDSVASTNGSRLLGNANVKAYIDKRLEE	-2.19
HMSARKVTVALHTRDHADRLRRLLKHEGVSADLVAARLSHKLTDHPIEVRVNEDDIPAVLRIIENIEIF	-1.31
HMTNEQLSKAKSWVQIAVYAAEKLYGAGNGDQKLVYAEEILRKHGIRLDTATLKAMIDAQIKEMEN	-0.149
HMTEKEEERTEDLNYYRLNLISMLKSSYPEYLDDEEFISNRSQEAAEAFEDAVRSGSNYLDASAESNRTLY	-0.362
HMDRMINYSPIVAKVPQDDYTTKVYNIPIYSELTVVDKISEPEPLIAPIYRFKYITPEDEEIEFDIPV	0.0278
HMTSKTLSAVEGEGLRLDKFLSNQLPELSRTKIQKMINDGLVFVNNTEAKASLILDGSEFIAYTVPD	-0.0541
HMKVRDTQYIIEAAISKNVIRKSKNIYYYGTDIIGRSLEDAIASLNDKKNQDIKMTILQEIES	-0.493
HMLLPGEELRVMIIQEGKEYGQGVGYLDDGTMVVVEDGQRALNRTENVVVTKVLQTTAGRMIFAK	-0.631
HMSGHIPGIKIKGVIFFDKGSSSNHIIATTENNSNLKLRVGETVQGAVLKSIHPNHVIFFHHNQLIEVGIG	-2.21

Sequence	soluble fraction (log2)
HMQQGVEQLPVTEVGGRLMHYYEVQPKETLYSLSHKLGVGQEYIEQHNPSVRGGLRAFMTLYFPAA	-0.0212
HMGDAATVFRDHYNINSAAQAQAALDRKEALWEQPNPWRDSDNREVFDWAAQTVKDRFDSGKYKPK	0.129
HMEKYIVEAEEQGKRLDMYISSKDEELTRTSAQRLIEQGDILVNNKKVKVAYKVSEGDIIAVEKQ	0.0849
HMLESPVEAIIRQIKQLITNGKLKPGDRLPAERLLAENFGVGRGYVREAIMKLEFFGLLKTSPQSGTYVAG	-0.748
HMLSKGDRVSWDTPQGRTQGEVVEKKTKDFEHDGQKFTASDDDPAFIVKSEKSGAEAAHKGSALNK	0.0884
HMDAMGAVGIARAFISAGERGGDISDGLEHMHGKLLRLSSLMYTRSGKKMAARRHELLSSFVQALEEEIK	-0.174
HMTFNEPSPKEIMDYSLSRGYKVDADAFIDFYRGKAKAYGKEGLWLDGRGRLVKDWRAKLRVVWFKDENKL	-1.22
HMLETIDIFKVTGGEPFLSKDFLEILDLAIEKDLAKNITLMITTNASKFVKKILDKFIHFKRVEFTVS	0.0202
HMNGEAQTMYVTARTLNVRKGPGTSYAKAGTLSRGTAVQVVGFSGNWAKLSNGYYVSTSYLAKI	-1.32
HMGELGPGSRGQAVRALQERLMALGFPLARFGADGIFGRETTGALRAFQHVAGLSPTGLGDHETLKWLGII	-0.935
HMGNRWENLISNKMIDDVDEELLRKYIAQAHDAGRIAISYTDRKTVLNQLELTDGDRLLNAGKVLFSD	-0.094
HMDDFVEIDGKKYEIDMSFDNILRLFDLLKDKSLNDVTKIETGLIMLIDDSLDDYDTEEKADIFVQIF	-0.0316
HMDNWYIAFNSFLSQNKLTAKNVSELTGLSKPTIDSYKQGKRKPTDENMQIIKDKLGFNISEILYN	-0.265
HMDLPRQSQYQALVVSYARRAGIDEAEEDLLAAFEVWRMRHNHDLAGGRTARDFILAYLPQYQRHKE	-1.63
HMARKFQKDTGYLNKKERTWLLDFFPSLKKYLYTGAYIRSIIVVESNVTYTDKELPSNYTFTYKFA	-0.252
HMGQLIGKEEAKQIALSRAGVAEGDISRYESELDTDDGKTKYEISFHVGRVEYDIEINAVTGAVEKFEMDN	0.131
HMKKYLIIDAANEKIIFKIIDNNKTYTNDYENSRKNFDRFAVLLFNFLNKNMISFDTIDKAL	-0.0864
HMGNLASGAYEQIKRRILSLEYLPGSILQERGLAEELGISRTPVREAIHRLSQEGWLKINSRKNIRVR	-1.98
HMAMMTKQRLIQLIHIARNDLQMDEDTYRQMLQGLTGKASTKGMDTPQLNRVLESMKKKGFRIK	-0.447
HMSLHSITIPQEFIGAVIGPGGKVIQEIQKQTGTTITITEKDNKGYVDIFGEDKGALDSALARIKEIVAIP	0.182
HMIAVLKQGVSKQQVENLITWFRSRGLDVHISEGKFQTIIGLIGDTSKVDIDLLNGLEIIESVKRI	-0.0376
HMPDITAAVARTLQALRADRGWSLDQLAARSGVSKGVLVALEQGRSNPNLATLARIGDAFGVPVTLLVDL	-0.543
HMSEYTRGELVSSLEAGEVAAVSIRPNRETPTGEAQIVLSDGQHRVLYVTDVREIEELVSSYGLNPQVEK	0.233
HMIYKLTLLRDLPEAKAGFDFYLRGGLASHDGEEWFSWVTREPIYARLYWLYVEKREEWVLVEETDI	-4.46
HMNMRVLSEQPNKKSYQDGNLRLKVFGASFKKSDILNEALNQARVEETGLQIPKLLEVKQIDGQWTIVTE	-0.0363

Sequence	soluble fraction (log2)
HMSLEDMILSLSSRIRRGESLHFRELLVAIETKSGMVTIFMAVLELLKQQVMEMRYEDDDIIFT	-0.912
HMGVGITAPLAGNIFKIVVQPGDVVASGDVVLVLEAMKMETEIRAASGGTVSQVLVREGDAVDAGHTLITL	-0.764
HMDKRYYYRILGLVGEPTRDQIEAAYETRIAKLRSSDYGDDPLYARRKISEVTMAYKVLTGS	-0.281
HMNARSTSYSDFIARVDKDEVASVRLDGETVTYQAADGTTYTTVKPESDPIAERLIAKGIEVNVVRQ	-0.49
HMVTEKNALTIEIEDLTKRFGNQRESLLPILQEVQLKHGHISDFAQQEIARLLDIHPVEVYGVVTFFSFLS	-2.21
HMPLDYNELRSISPKAARQAILQILAANKGNVSATAKLLGVSRKTVYKAMHKKASGNLDDTSRAPK	-0.851
HMASLSRRELEVLELLALRLTVKEVAERLVISELTAKRHTSNIYQKLGVNRRRDALAAAQARGLLGAR	-2.9
HMAFDGIVLKNITNALKELINGKINKIQQSSKDNLTLSIYNQKSYNLYIDISANNYRVNLTTHSE	0.103
HMDRMMQPETWGRVYQWITDDPQVPDREEVLTLIKYHYGDFGKLMKLLHRLNEGKAWTYLSEHIFPRM	-0.123
HMKPSISKIYALWGVLQRSGKIKSQDKAALDAFVRKYTGVDHVKWLDESQARKIIEILKQMIA	-0.458
HMPQLEDLEPLDSSGMVRRDGPHLVLAVGRHRGRHLEEVRDSDPSYLHWLLSPKGIEDIQAKEDIKTYLNL	0.0519
HMTGEDIKKVILREYAREKSLLSIFHELSKVNSNVTLEVIKDIITNIDKLPNDLLQYFKEESSFYQKNKN	-0.397
HMASSVKAPLPGVILDIKVKVGDTIKNGDTVVILEAMKMENNIHSDKDGVVKSIEVNKGDSVLEGATLLTI	-0.0654
HMRDADRYAFMQENVEDFAKDMRRKHMTYDVLYEEYIRRTDNPYGYTQFKAIVQEYEKNHDYK	-0.141
HMLLQTAVISTDIVNMRAEPTTNSSVIRKLTKGSDITINQEKDGWYKISDDQGNSGWIVTWAAKPT	0.0497
HMRSGEDESFSAGLLEYPHYTRPAEFEGHRIPDILTSGDHAKVDAWRQEMSEHITRERRPDLWEMYKKK	0.0901
HMKRVVFFNGISWYHRTKELLDDMTTKYGKKGGFATPEEAEKSYWEYEERYKDRQRELQVAYLKN	-0.648
HMSQQVVTDGVNLRLRYAPSPDAETYKWADGTNRHPEKGERFPYLGDIGDFYRIDYKGLVLYVSKQHTHL	-1.85
HMDGRSLSHATLEEIRIRAVQRVEAGESPEVVVKALGFSRPRIYEWLALYREGGLEALRAKPV	-0.505
HMKDYKTIFQELIQKKHKTSPIYKSYEYNDMFKAEVYVNDKSFADGIGKSKKEAETDAAKKALEKIEMA	0.0966
HMLKSGSAVAQARDVILEKGVPVHINEILDALGKGDTREAKASLTSSLAAYVRRGEIFTRPAPNTFGLVEL	-0.372
HMYTLGEESDGTVRLLELYDIIKNKNEKIFVVDELDRSLHPNLTFNFVKKYLSIENKSQLIVSTH	-0.0206
HMWDRFGELDSAEEINRIAAAELREGDIDALKVLAEENGLDKDDVEDYIDRLIDELTTPELAAIGKLDV	0.0934
HMKTPIEFGSVYNDPVRYVIGMSIKSAESINQAIYDMMKIFGDENNMNKFDSLPDEQAVLDMVNSF	0.0157
HMPDFAENAVYGKQREDSLYAHAYKHFQLGDTTTVRAAEHLSAEIYPLGQHRPKFMFLNAVTR	0.0766
